Experimental data from the RNAGym collection of RNA variant scans (doi:10.7554/elife.80360).

B1: HDV Ribozyme (parent)
chain: GGCCGGCAUGGUCCCAGCCUCCUCGCUGGCGCCGGCUGGGCAACAUUCCGAGGGGACCGUCCCCUCGGUAAUGGCGAAUGGGACCCA

Variants of: B1
Test: self-cleavage, relative activity (ratio to wild type); higher = more cleavage; co-transcriptional

Question: For G52C A83C, which self-cleavage is on record?
Answer: The self-cleavage was 0.475.

Question: Which self-cleavage does the source give for G50U A51C here?
Answer: The self-cleavage was 0.889.

Question: Which self-cleavage does the source give for C49G G54U here?
Answer: Its self-cleavage is 0.519.

Question: With C49U C62A as the variant, how does the self-cleavage read?
Answer: The self-cleavage was 0.652.

Question: For G50U C64G, which self-cleavage is on record?
Answer: Its self-cleavage is 0.703.

Question: Which self-cleavage does the source give for G52U C75G here?
Answer: The self-cleavage was 0.297.

Question: Which self-cleavage does the source give for G50A C84U here?
Answer: The self-cleavage was 0.754.

Question: Which self-cleavage does the source give for G50C A83C here?
Answer: The self-cleavage was 0.317.

Question: With C49G U79C as the variant, how does the self-cleavage read?
Answer: The self-cleavage was 0.631.

Question: Which self-cleavage does the source give for G52U G67U here?
Answer: Its self-cleavage is 0.205.

Question: Which self-cleavage does the source give for G50C G54C here?
Answer: The self-cleavage was 0.32.

Question: With G50C U69A as the variant, how does the self-cleavage read?
Answer: The self-cleavage was 0.831.

Question: For G50C U69G, which self-cleavage is on record?
Answer: The self-cleavage was 1.05.

Question: With G52C C64U as the variant, how does the self-cleavage read?
Answer: The self-cleavage was 0.964.

Question: Which self-cleavage does the source give for G50U U60G here?
Answer: Its self-cleavage is 0.831.

Question: Which self-cleavage does the source give for A51C U65C here?
Answer: Its self-cleavage is 0.942.

Question: For G52A C61A, which self-cleavage is on record?
Answer: Its self-cleavage is 1.19.

Question: With G52A A71C as the variant, how does the self-cleavage read?
Answer: The self-cleavage was 0.744.

Question: With C49G C86G as the variant, how does the self-cleavage read?
Answer: Its self-cleavage is 0.587.

Question: Which self-cleavage does the source give for G50C A87U here?
Answer: Its self-cleavage is 1.15.

Question: For G50C A87C, which self-cleavage is on record?
Answer: Its self-cleavage is 0.95.

Question: With G50C A87G as the variant, how does the self-cleavage read?
Answer: The self-cleavage was 0.974.

Question: With G50A A71C as the variant, how does the self-cleavage read?
Answer: Its self-cleavage is 0.633.

Question: Which self-cleavage does the source give for G52A C62G here?
Answer: Its self-cleavage is 0.397.

Question: Which self-cleavage does the source give for C49G C84A here?
Answer: The self-cleavage was 0.652.

Question: With C49G C84G as the variant, how does the self-cleavage read?
Answer: The self-cleavage was 0.297.

Question: For G52C G53A, which self-cleavage is on record?
Answer: Its self-cleavage is 0.733.

Question: With G52A U60A as the variant, how does the self-cleavage read?
Answer: The self-cleavage was 0.975.

Question: For G52A U60G, which self-cleavage is on record?
Answer: The self-cleavage was 0.897.

Question: With A51C C64U as the variant, how does the self-cleavage read?
Answer: The self-cleavage was 0.9.

Question: With A51C C64G as the variant, how does the self-cleavage read?
Answer: The self-cleavage was 1.09.

Question: With C49A G50C as the variant, how does the self-cleavage read?
Answer: Its self-cleavage is 1.15.

Question: Which self-cleavage does the source give for C49A G81A here?
Answer: Its self-cleavage is 0.242.

Question: For C49A G81C, which self-cleavage is on record?
Answer: The self-cleavage was 0.189.

Question: With G50A A77G as the variant, how does the self-cleavage read?
Answer: The self-cleavage was 0.743.

Question: Which self-cleavage does the source give for A51U U65G here?
Answer: The self-cleavage was 1.3.

Question: Which self-cleavage does the source give for G50A C86U here?
Answer: Its self-cleavage is 1.06.

Question: With G50A C86A as the variant, how does the self-cleavage read?
Answer: Its self-cleavage is 0.931.

Question: With G52A U65A as the variant, how does the self-cleavage read?
Answer: Its self-cleavage is 0.954.

Question: With C49U C75A as the variant, how does the self-cleavage read?
Answer: Its self-cleavage is 0.196.

Question: With C49U A51G as the variant, how does the self-cleavage read?
Answer: Its self-cleavage is 1.01.

Question: Which self-cleavage does the source give for C49U A83G here?
Answer: The self-cleavage was 0.883.

Question: With C49U A83C as the variant, how does the self-cleavage read?
Answer: The self-cleavage was 0.615.

Question: For G50A C75G, which self-cleavage is on record?
Answer: Its self-cleavage is 0.0852.

Question: With G52U U69A as the variant, how does the self-cleavage read?
Answer: The self-cleavage was 1.09.

Question: Which self-cleavage does the source give for G52U U69C here?
Answer: Its self-cleavage is 0.831.

Question: Which self-cleavage does the source give for C49G A87G here?
Answer: Its self-cleavage is 0.969.

Question: With C49G A87U as the variant, how does the self-cleavage read?
Answer: The self-cleavage was 0.913.

Question: Which self-cleavage does the source give for G50U U69C here?
Answer: The self-cleavage was 0.962.

Question: For G50C C85U, which self-cleavage is on record?
Answer: Its self-cleavage is 1.09.

Question: With G50C C85G as the variant, how does the self-cleavage read?
Answer: The self-cleavage was 0.831.

Question: For A51G A87G, which self-cleavage is on record?
Answer: The self-cleavage was 1.

Question: For A51G A87C, which self-cleavage is on record?
Answer: The self-cleavage was 0.751.

Question: With G52C U79G as the variant, how does the self-cleavage read?
Answer: The self-cleavage was 0.475.

Question: Which self-cleavage does the source give for G52C G73C here?
Answer: The self-cleavage was 0.339.

Question: Which self-cleavage does the source give for G52C A70G here?
Answer: Its self-cleavage is 0.702.

Question: With C48U U60C as the variant, how does the self-cleavage read?
Answer: Its self-cleavage is 1.27.

Question: Which self-cleavage does the source give for G50U G74C here?
Answer: Its self-cleavage is 0.214.

Question: Which self-cleavage does the source give for G50U G74A here?
Answer: The self-cleavage was 0.453.

Question: With C49U A56U as the variant, how does the self-cleavage read?
Answer: Its self-cleavage is 0.973.

Question: With G52U G80C as the variant, how does the self-cleavage read?
Answer: Its self-cleavage is 0.241.

Question: For G52U G80A, which self-cleavage is on record?
Answer: Its self-cleavage is 0.528.

Question: For A51C G73A, which self-cleavage is on record?
Answer: Its self-cleavage is 0.383.

Question: Which self-cleavage does the source give for G52C A56C here?
Answer: Its self-cleavage is 0.95.

Question: Which self-cleavage does the source give for G52C A56U here?
Answer: Its self-cleavage is 1.12.

Question: For G52C A56G, which self-cleavage is on record?
Answer: The self-cleavage was 0.851.

Question: With A51U G74A as the variant, how does the self-cleavage read?
Answer: The self-cleavage was 0.288.

Question: Which self-cleavage does the source give for A51G U72A here?
Answer: Its self-cleavage is 0.665.

Question: With C48U U79A as the variant, how does the self-cleavage read?
Answer: Its self-cleavage is 0.706.

Question: With C48U U79G as the variant, how does the self-cleavage read?
Answer: The self-cleavage was 0.665.

Question: For A51G A56C, which self-cleavage is on record?
Answer: Its self-cleavage is 0.733.

Question: Which self-cleavage does the source give for A51G A56U here?
Answer: The self-cleavage was 1.

Question: Which self-cleavage does the source give for A51U G53A here?
Answer: The self-cleavage was 0.927.

Question: With A51U C62A as the variant, how does the self-cleavage read?
Answer: Its self-cleavage is 0.759.

Question: With G52U G82U as the variant, how does the self-cleavage read?
Answer: The self-cleavage was 0.382.

Question: For A51G G67U, which self-cleavage is on record?
Answer: Its self-cleavage is 0.65.

Question: With C49G A77C as the variant, how does the self-cleavage read?
Answer: Its self-cleavage is 0.119.

Question: For C49G G74A, which self-cleavage is on record?
Answer: The self-cleavage was 0.132.

Question: With G50C U72C as the variant, how does the self-cleavage read?
Answer: The self-cleavage was 0.494.

Question: For G50U C84U, which self-cleavage is on record?
Answer: The self-cleavage was 0.665.

Question: Which self-cleavage does the source give for C49A U60C here?
Answer: The self-cleavage was 0.78.

Question: With G52A G53A as the variant, how does the self-cleavage read?
Answer: Its self-cleavage is 0.89.

Question: With G50C U65G as the variant, how does the self-cleavage read?
Answer: The self-cleavage was 0.453.
